Experimental data from patent publication US6632626B1, “Methods of assaying farnesyl transferase” (Board of Regents, The University of Texas System, priority 1990, dated 2003).
“Also recorded” adds a separate entry of the source. Residues, ends and D or L forms follow the SMILES beside them. No end group written: not given here.

Legend:
Assay type in all cases: biochemical
[1] = molecular target: T1, rat brain farnesyl:protein transferase (Rattus norvegicus, UniProt Q02293+Q04631); experiment: Farnesyl:protein transferase inhibition: competition with p21H-ras for [3H]farnesyl from [3H]FPP, partially purified enzyme, TCA filter assay
T1 construct: Brains from 50 male Sprague-Dawley rats (100-150 g) were homogenized; from tissue
Method: Farnesyl:protein transferase activity was determined by measuring the amount of ^3H-farnesol transferred from ^3H]farnesyl pyrophosphate ([^3H]FPP) to p21^H-ras protein. The standard reaction mixture contained the following concentrations of components in a final volume of 25 μl: 50 mM Tris-chloride (pH 7.5), 50 μM ZnCl2, 20 mM KCl, 1 mM DTT, and 40 μM p21^H-ras. The mixture also contained 10 pmoles of [^3H]FPP (−30,000 dpm/pmol) and 1.8-3.5 μg of partially purified farnesyl:protein transferase (see below). After incubation for 1 h at 37° C. in 12×75-mm borosilicate tubes, the reaction was stopped by addition of 0.5 ml of 4% SDS and then 0.5 ml of 30% trichloroacetic acid (TCA).
The tubes were vortexed and left on ice for 45-60 min, after which 2 ml of a 6% TCA/2% SDS solution were added. […] The tubes were rinsed twice with 2 ml of the same solution, and each filter was washed five times with 2 ml of 6% TCA, dried, and counted in a scintillation counter. One unit of activity is defined as the amount of enzyme that transfers 1 pmol of [^3H]farnesol from [^3H]FPP into acid-precipitable p21^H-ras per hour under the standard conditions.
In the enzyme characterization experiments of FIGS. 1-4, 8, and 9, a partially purified fraction of farnesyl:protein transferase was used. […] The column was equilibrated with 50 mM Tris-chloride (pH 7.5) containing 1 mM DTT, 0.2 M NaCl, 20 μM ZnCl2, and 0.2% octyl-β-glucopyranoside and eluted with the same buffer at a flow rate of 15 ml/h.
This blank value was subtracted before calculating “% of control” values.

[2] = molecular target: T2, purified farnesyl:protein transferase (Rattus norvegicus, UniProt Q02293+Q04631); experiment: Farnesylation of tetrapeptides by purified farnesyl:protein transferase, thin layer chromatography (substrate or pure inhibitor); conditions: 3.6 μM tetrapeptide, purified enzyme (FIG. 15)
T2 construct: Brains from 50 male Sprague-Dawley rats (100-150 g) were homogenized; from tissue
Method: FIG. 15. […] The standard assay mixture (25 μl) contained 17 pmol [^3H]FPP (44,000 dpm/pmol), 5 ng of purified farnesyl:protein transferase, 0.2% (w/v) octyl-β-D-glucoside, and 3.6 μM of the indicated tetrapeptide. After incubation for 15 min at 37° C., the entire reaction mixture was subjected to thin layer chromatography for 4 h on Polygram SIL G sheet (Brinkmann Instruments) in a solvent system containing N-propanol/concentrated NH4OH/water (6:3:1). The TLC sheet was then dried, sprayed with ENHANCE Spray (Dupont-New England Nuclear) and exposed to Kodak X-OMAT AR Film XAR-5 for 25 h at −70° C.

[3] = molecular target: T3, partially purified rat brain farnesyl:protein transferase (Rattus norvegicus, UniProt Q02293+Q04631); experiment: Substrate saturation of farnesyl:protein transferase (FIG. 2); conditions: 1 h at 37° C.
T3 construct: Brains from 50 male Sprague-Dawley rats (100-150 g) were homogenized; from tissue
Method: FIG. 2. Substrate Saturation Curves for Farnesyl:Protein Transferase. Panel A, each standard reaction mixture contained 1.8 μg of partially purified farnesyl transferase, 40 μg p21^H-ras, [^3H]FPP (250,000 dpm); and varying amounts of unlabeled FPP to give the indicated final concentration of [^3H]FPP. […] For both panels, assays were carried out in duplicate for 1 h at 37° C., and TCA-precipitable radioactivity was measured as described in the Example.
Farnesyl:protein transferase activity was determined by measuring the amount of ^3H-farnesol transferred from ^3H]farnesyl pyrophosphate ([^3H]FPP) to p21^H-ras protein. The standard reaction mixture contained the following concentrations of components in a final volume of 25 μl: 50 mM Tris-chloride (pH 7.5), 50 μM ZnCl2, 20 mM KCl, 1 mM DTT, and 40 μM p21^H-ras. The mixture also contained 10 pmoles of [^3H]FPP (−30,000 dpm/pmol) and 1.8-3.5 μg of partially purified farnesyl:protein transferase (see below). […]
The tubes were vortexed and left on ice for 45-60 min, after which 2 ml of a 6% TCA/2% SDS solution were added. […] The tubes were rinsed twice with 2 ml of the same solution, and each filter was washed five times with 2 ml of 6% TCA, dried, and counted in a scintillation counter. […]

Compound | inhibitory activity against farnesylation of p21H-ras (in words) [1] | pure inhibitor or substrate for farnesylation [2] | concentration giving half-maximal reaction velocity [3]
S-acetoamidated CVIM: CVIM alkylated on cysteine with iodoacetamide (C(acetamide)VIM) | appears to lose much of its inhibitory activity | – | –
CC[C@H](C)[C@H](NC(=O)[C@@H](NC(=O)[C@@H](N)CS)C(C)C)C(=O)N[C@@H](CCSC)C(=O)O [CVIM] (H-CVIM-OH; N-terminus and C-terminus assumed) | sufficient for competition | Farnesylation | –
CC(C)=CCC/C(C)=C/CC/C(C)=C/COP(=O)(O)OP(=O)(O)O [[^3H]farnesyl pyrophosphate, [1-^3H]Farnesyl pyrophosphate] | – | – | approximately 0.5 μM
TKVCIM: hexapeptide with cysteine transposed from fourth to third position from the COOH-terminus | severely reduced inhibitory activity; also recorded: inhibitory activity of the peptide is reversed | – | –
CFVM: related peptide, inhibitory through action as a substrate for farnesylation (CVFM) | – | not a “pure” inhibitor | –
